These results are taken from the DeepSol protein solubility set.

A short description of this data set: soluble on expression in E. coli; label from the status in PepcDB or PDB records.
Take “MNEFEKLLEESIASPEEFKRGQVVKGRVVKVAGDTVFVDIGYKTEAVISKEEVPEVQEGQEIEAVLVRFSPRIPNPVLSVKPLQEKKELEKLKEAYLNKSDVVGKIEKKVKGGFIVDFEGVKAFLPMSQAGKKLKEGQVLTFKVLDFKLDSKRPQIIVSHKAYLDEQREKRKQELLNTLKPGDVVEGKVVKIDPNKGVTLVIEGVLRAFLPKEELSWGRDKNPYNYTDVGETLKVKVKRVDKQKGFIIVSLRELKGNPWEKFLKEHKEGDVIEGRVVAVTPKGVVVEVMEGVEGFVPEEELAWEGKPEFKKGDLVKAKIMKIDPKRRRLILSIKRAQPRPWEIFLQKHPVGSKVKGKVIKIEGSRAIVELEDGVKGVIHRSDLSWTRPKRVEEVLKEGEEREFAVLGLEGKYVKLGLKQLTENPWEKVKEKYKVGDVVKLPVKELAPFGAFLEFPEGVEGLLPFSEVPRHIRIRKGQEYEVKIIDINPKEGKITFSINALYGEKPEEKEEKVEEVTTATTGGFKLGEILKKRWKL”: the “soluble on expression in E. coli” value is on record as “not soluble”.

Regarding “MGSDKIHHHHHHMDSRDMQAIGLCRFSYPAIGGFQVEHETIEERISYLYAEDRLEERFQLLETVALPCLREQTDQNFELIVVIGDTLPKRHGDRLHDLTSDMPQVRIVVEPPRPQRELMKELLNSARTDPSKPCLQFRYDDDDAVSVDFIERFRNALNDCRGLVTTNRTVAVDFNRGYVAELGADGIAATETVRTLYVASLGMYVKGGCRLTIMNFAHEKIGRFMPVISISDVPMWVRSHNGFNDSRQKKVKPVPVVPLTEDQKAEFAARFAIREDHVKRVFSGG”, the “soluble on expression in E. coli” value is on record as “not soluble”.

In the case of “MAHHHHHHMKNFASWALRLHQDGISEERPQLGKQLYDKVCTVQTVKDYPGLRFKDMKEAIGFPIKRDDMFLPASMKEKRQQQQQIGVPPRRSQCFTCGQLGHYSNTCGVFKHKLNTRQKSDIQFKKQ”, the “soluble on expression in E. coli” value is recorded as “not soluble”.

On to “MTAMLSMACRRAVRAGAHCDEGGHVKAFDYPDSMNNKPVPIVLRRTSIGLILFILPAMLIGCSRVPVKTQPKPASVNVWPLTTPANPEAANEVVMRALSLVGTPYRFGGNTPESGFDCSGLVSYVYRDALDLRLPRTSYELAAVQGPKIDAEQLTTGDLVFFGSARSVTHVGIYLSEGRFVHAPSSGGTVRLDRLDTPYWRDHYTGAKRVLRIIEAKVSMVFTDKCHLTFTHYGEESAQAALHTYFNIGDINQVEVQGLPETCFNSLNQQQENVPSPRHISENVDCIYSAENMQNQILDKSFNRTIALHHHNASQFVLWNPWHKKTSGMSETGYQKMLCLETARIHHLLEFGESLSVEISLKG”, for which the “soluble on expression in E. coli” value was “soluble”.

As for “SEETYTDSLDPEKLLQCPYDKNHQIRACRFPYHLIKCRKNHPDVASKLATCPFNARHQVPRAEISHHISSCDDRSCIEQDVVNQTRSLRQETLAESTWQCPPCDEDWDKDLWEQTSTPFAWGTTHYSDNNSPASNIVTEHKNNLASGMRVPKSLPYVLPWKNNGNAQ”, the “soluble on expression in E. coli” value was “soluble”.

For the sequence “MGSDKIHHHHHHMAVQDLLSQDEIDALLHGVDDGMVQTDIASEPGSVKSYDLTSQDRIVRGRMPTLEMINERFARYTRISMFNLLRRSADVAVGGVQVMKFGEYVHSLYVPTSLNLAKIKPLRGTALFILDAKLVFKLVDNFFGGDGRHAKIEGREFTPTELRVVRMVLDQAFIDLKEAWQAIMEVNFEYINSEVNPAMANIVGPSEAVVISTFHIELDGGGGDLHVTMPYSMIEPIREMLDAGFQSDLDDQDERWVNALKEDVLDVNVPLTTTIAQRQLPLRDILHMRPGDVIPVELSDTLVLRANGVPSFKVKLGSHKGKMALQVIEPIARR”, the “soluble on expression in E. coli” value is given as “not soluble”.

Regarding “MAEGERQPPPDSSEEAPPATQNFIIPKKEIHTVPDMGKWKRSQAYADYIGFILTLNEGVKGKKLTFEYRVSEAIEKLVALLNTLDRWIDETPPVDQPSRFGNKAYRTWYAKLDEEAENLVATVVPTHLAAAVPEVAVYLKESVGNSTRIDYGTGHEAAFAAFLCCLCKIGVLRVDDQIAIVFKVFNRYLEVMRKLQKTYRMEPAGSQGVWGLDDFQFLPFIWGSSQLIDHPYLEPRHFVDEKAVNENHKDYMFLECILFITEMKTGPFAEHSNQLWNISAVPSWSKVNQGLIRMYKAECLEKFPVIQHFKFGSLLPIHPVTSG”, the “soluble on expression in E. coli” value is recorded as “soluble”.

With “MGSDKIHHHHHHMIQMFINLLETIPSLGRHSFQVAFLSAQIAEKMNLDPNVSFLSGLIHDLGLILPYEGKTLLDEIDDTFVIVRDTPGKPLHLHSILGSFITDYVEKLKPISPIVLKHHFPASYLDKTEENLISNIVFISDQVSRYTMINLDVSPRDILIALEDMKSFFFPEVFEACREVLNTEFVQWQLENILAGYDVTDLLDHHVRNCPDCDKKDLIQIGKIVSFIVDTKSEFTTSHTWRVAVFSEKMAEKAGRNSEDLFIAGLYHDIGKISVSYKILEKPAKLSDEEYAIMKKHVYFSYLILLPYKDENWFLPAVRHHERLDGYGYPFRLKGEEMTLEDKIIQVADVFSALLEERPYRPANTVEKALSMVREEVKKKKLSQEAFELLESSLEDFDLSSIEVGREIRKEIRTFVNRVVEKFGDYVL”, the “soluble on expression in E. coli” value is on record as “not soluble”.

Turning to “MKGTQMLALNKKCWDIVAPYFFQVDCLPKYGPYTASEDEIHLFDSIKGKKVLDIGCGSGHSLQYMAEHGAEELWGLDLSSTQIETAHETLQSWNPKLICGAMEEERDIPKGYFDIVYSIYALGWTSDLRKTLELIYSYVKPGGSFIFSWEHPVYSNLMYGTEEIAFSSSYHEETPITFETFKGEDVQATLYKRKMSTYINELNRVGFTIERIEEPEPSSSFDEKLAEPSTKYYSLHKARMVPTTFIIKARKLEHHHHHH”, the “soluble on expression in E. coli” value is “soluble”.

“MSLTQDYELVVKGVRNFENKVAVTVALRDKKRFDGEIFDLDISLDRVEGAALEFYEAAARMRIRQVFLDVAAGLCVGDEQSPEKRPIILEAQNVWITYKGKLPGRITGSLKTPPTALRSEGHHHHHH”: the “soluble on expression in E. coli” value was “not soluble”.

In the case of “MGSDKIHHHHHHMMEKVTQMIAMLIKAWKKESVSQIDTPPVPATPEPKQQSPNNSACLTERVNTFLQTHYDFRYNRLTEETEFRPLSGAKTEFRPIGKRELNTLCMEAHAEGISCWDKDVSRYIYSTQIGEYHPFRLYMDELPPWDGIDRLTPLARRVSALPLWVKGFHTWMLGLAAQWEGKTGVHANSLAPILISAEQGRMKSTFCKSLMPKVLQRYYMDNLKLTSEGQAERLLSEMGLINLDEFDKYAESKMPLLKNLMQMSSLHVCKAYQRNFRDLPRIASFIGTSNRSDLMSDPTGSRRFFCVEVEKPINCEGIEHEQIFAQLKAELADGCPYWFDKETEREIQQNNAPFYRTCPAEEVFLSCFRTSASAEEKYLRLSAADIYKELKKRNAAALRGFNPNHFAQVLIKMGVERKHTEYGNVYLVVRR”, the “soluble on expression in E. coli” value is given as “not soluble”.

In the case of “MDIDYTVGEVELSYKPKFKNIYKVVSSEDAYKYLLPTYKEGTICYKEYFKVLFLNQASQVLGYTLISEGGITDTTVDVRVILQAALLTNSVAIILAHNHPSGSMKPSRQDMEITKQVKEAARLMRITVTDHLILTDAGYYSFADEGEL”, the “soluble on expression in E. coli” value was “not soluble”.

Regarding “MAHHHHHHMYSFSLASNRKRAIPNASGLAPPAAAHVIRAPSELKPHQRLPQPLNEAADDAADDDVMQVSNARFGWHPAHAHAPTSSLYSVRPPAEQLVHVHNLNAYAGLRDAADWSVEVQREREQKKRRALAQHEAVKLEEQRHRDAHEEQTKKEMQQRRLERQQERAELREADAMADFQERNTQFLQNQLWLMQLGSYVKQTDAQHKAHVREELHKSSSSRNHLDVDHASTTCWTGTKARGHHASAPSTEIDLRQAAEATEEAYVRLSLAYRNEAQRSRAAAAILHPGELTGKGRSRLQAIRPAGAFASPTSPSAPSQAATAVSTPSHSPAASPAPAAVTEAAAKVSAPFHTAPPMFTHTSTENMGQHANAIPYTYIPEYFDAPSAAATTGKVPAPHRAGESPEQQETGAVMPLPLSPVPVSRDVTGALQARYYPWALYSAATVRKSMLPPLPPPREASLPVRRWGAAELRDSMFGHCILEDGTIQDQCERKKVCAAYLSYTTLPRDNATATSNAAVEPQEPLHFGKRMDIWL”, the “soluble on expression in E. coli” value was “not soluble”.

For “MSLRKVIGIGETILDIIFRNDQPSAAVPGGSVFNGIVSLGRMGVNVCFISETGNDHVGNIILQFMRDNHIPTDHVNVFPDGKSPVSLAFLNEHSDAEYIFYKDYPKQRLDVLFPSINEDDIIVIGSYYALNPVLRDKILELLDIAKEKRAIVYYDPNFRSSHKNEAMKLAPTIIENLEYADIVRGSLEDFYYMYGIKDVEKIYKDKIKFYCPLFLCTAGAERISLRTNAISKEYPVAPLEAVSTIGAGDNFNAGLIYGMLKYDVRYRDLQHLSEETWDKVIQCGQDFAAEVCKSFNNSISGEFAANYREGHHHHHH”, the “soluble on expression in E. coli” value was “soluble”.

Take “MGSDKIHHHHHHVLLEEFENTSAVIEPTDMAIRGGGEVCETMIFSFNGEIVDRVRQLPESREGGYLESINGRHPWYILERDGVRVAVMLAVIGAPMAVGHLEELKACGFENFIVLGSCGVLDKSLVADKIILPSSALRDEGTSYHYAPASDEISYDPALLLTMEKALDQAGIEHVRAKTWTTDAFYRETSAKVKRRLAAGAMVVDMEASAIMAWANFRQAKVYQFFYTADYVDYHKNEWDARREERTADSMTFFEVAMAIARKLESTSC”: the “soluble on expression in E. coli” value was “not soluble”.

Turning to “MGSDKIHHHHHHMTEATYYFIGIKGSGMSALALVLHDLGHQVLGSDITQYTFTQKGLAAAGIKMLPFDPANLKPGYTVIAGNSFTDDHPEIKRAKELGLTIYRYHEFLGKLIEGYTSIGVAGAHGKTSTTGLLAHTLSGVAKTSYLIGDGTGKGIPDSKFFVFEADEYRRHFLAYHPDYMIMTNIDFDHPDYYTGFEDVYDAFETEANQVKKAIVAWGDDPWLRKLKAKVPVYYYGISDRDDFQARNVDRDTKGSSFDAYFHDQLIGHFFVPLFGEHSVLNALAVVAVAHMEKLDAKLIARELGNFSGVKRRFAEKDLKDMIIVDDYAHHPNEIKATLDAARQKYPDKAIIAVFQPHTFSRTQAYEPQYVQVLSQADQTFLTPIFSSAREKTGKIRSEDITAQIKGAAVIHQEDMKPLLQYHNAVVVFMGAGDIQKYEKAYETILAEE”, the “soluble on expression in E. coli” value is recorded as “not soluble”.

On to “MGSDKIHHHHHHMSEISAIWERIEAWHAANDQTENLNPGATAEALAQAEKDMGLTFPPEMRESLLRHDGSVDDSWPTGELLSLERMADERKVWMDLLQDGTFDGNASHNESSEALQPGWWNPAWIPLDADGGGNGAVIDLAPGPQGTVGQVIDMDHEVGPSGPKYVSLAAYLEAMLERLSEAEE”, for which the “soluble on expression in E. coli” value was “not soluble”.

Consider “MFNFANVYQQIAQHPQLQLWLNTLPQQLTDWQAKQHGDLDRWMRNLKKIPVGQPEVIDLKNAVAAHNHQPLAQGEQKKLEAVLKTFHPWRKGPYHLHGIHIDTEWRSDWKWDRLLPHISPLKNRLVLDVGCGNGYHMWRMLGEGAQQVFGIDPSELFLIQFEAVRKLLGDDQRVHLLPLGIEQMPELNAFDTVFSMGVLYHRRSPLDHLLQLKNQLVAGGELILETLVVEGDEHTVLVPFDRYAQMRNVYFFPSALALKVWLEKTGFVDVRIVDENITSLGEQRTTEWMTHNSLPDYVDPQDPSKTIEGYPAPRRAILIAKKP”, for which the “soluble on expression in E. coli” value is reported as “not soluble”.

As for “GAMADDAAIQQTLAKMGIKSSDIQPAPVAGMKTVLTNSGVLYITDDGKHIIQGPMYDVSGTAPVNVTNKMLLKQLNALEKEMIVYKAPQEKHVITVFTDITCGYSHKLHEQMADYNALGITVRYLAFPRQGLDSDAEKEMKAIWCAKDKNKAFDDVMAGKSVAPASCDVDIADHYALGVQLGVSGTPAVVLSNGTLVPGYQPPKEMKEFLDEHQKMTSGK”, the “soluble on expression in E. coli” value is reported as “soluble”.

For the sequence “MEGNHEEPQGGLEELSGRWHSVALASNKSDLIKPWGHFRVFIHSMSAKDGNLHGDILIPQDGQCEKVSLTAFKTATSNKFDLEYWGHNDLYLAEVDPKSYLILYMINQYNDDTSLVAHLMVRDLSRQQDFLPAFESVCEDIGLHKDQIVVLSDDDRCQGSRDLEHHHHHH”, the “soluble on expression in E. coli” value was “soluble”.
